Source: PMC2940250

Experiments:
Assay in all cases: other fluorescence titration
[1] = biological target: B1 chimeric virus (HRV14:HIV-1 gp41 ELDKWAS chimera) (human rhinovirus 14 | HIV-1 HxB2)
[2] = biological target: 14-C40-1 chimeric virus (HRV14:HIV-1 gp41 ALDKWAS chimera from a previous library) (human rhinovirus 14 | HIV-1 HxB2)
[3] = biological target: C1 chimeric virus (HRV14:HIV-1 gp41 ELDKWAS chimera) (human rhinovirus 14 | HIV-1 HxB2)

## broadly neutralizing human mAb 2F5 (antibody)
[1]
  Kd: 2 nM
[2]
  Kd: 769 nM
[3]
  Kd: 23.8 nM
